doi:10.1101/2023.10.09.561572

Molecular target: T1, SERF2 (Homo sapiens) (UniProt P84101)
T1 sequence: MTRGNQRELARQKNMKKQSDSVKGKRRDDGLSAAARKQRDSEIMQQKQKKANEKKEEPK
Assay: fluorescence polarization
Conditions: FP: 20 mM NaPi pH 7.4, 100 mM KCl, 25 C (20-100 nM FAM-RNA or 200 nM AF488-SERF2); NMR: same buffer, 4 C

polyG RNA was tested. Which Kd did it give?
Its Kd is < 1 µM.

TERRA60 rG4 was tested. Which Kd did it give?
The Kd was < 1 µM.
